Assay results: patent US20130209454A1
Where a chain is given by its changes, count along the chain named. Names may count otherwise.

Legend:
Assay in all cases: cell-based or functional assay
[1] = biological target: HIV-1 Env of strain 231966.c02 (HIV-1)
[2] = biological target: HIV-1 Env of strain 3103.v3.c10 (HIV-1)
[3] = biological target: HIV-1 Env of strain 3817.v2.c59 (HIV-1)
[4] = biological target: HIV-1 Env of strain 6480.v4.c25 (HIV-1)
[5] = biological target: HIV-1 Env of strain 6540.v4.cl (HIV-1)
[6] = biological target: HIV-1 Env of strain 6811.v7.c18 (HIV-1)
[7] = biological target: HIV-1 Env of strain C1080.c03 (HIV-1)
[8] = biological target: HIV-1 Env of strain C2101.c01 (HIV-1)
[9] = biological target: HIV-1 Env of strain C3347.c11 (HIV-1)
[10] = biological target: HIV-1 Env of strain CNE17 (HIV-1)
[11] = biological target: HIV-1 Env of strain CNE30 (HIV-1)
[12] = biological target: HIV-1 Env of strain CNE53 (HIV-1)
[13] = biological target: HIV-1 Env of strain Ce1176_A3 (HIV-1)
[14] = biological target: HIV-1 Env of strain Q461.e2 (HIV-1)
[15] = biological target: HIV-1 Env of strain R1166.c01 (HIV-1)
[16] = biological target: HIV-1 Env of strain SC422661.8 (HIV-1)
[17] = biological target: HIV-1 Env of strain T250-4 (HIV-1)
[18] = biological target: HIV-1 Env of strain T278-50 (HIV-1)
[19] = biological target: HIV-1 Env of strain TROJO4551.58 (HIV-1)
[20] = biological target: HIV-1 Env of strain WEAU_d15_410_787 (HIV-1)
[21] = biological target: HIV-1 Env of strain ZM135M.PL10a (HIV-1)
[22] = biological target: HIV-1 Env of strain ZM197M.PB7 (HIV-1)
[23] = biological target: HIV-1 Env of strain ZM214M.PL15 (HIV-1)
[24] = biological target: HIV-1 Env of strain ZM249M.PL1 (HIV-1)
[25] = biological target: HIV-1 Env of strain ZM53M.PB12 (HIV-1)
[26] = biological target: HIV-1 strain 0330.v4.c3 envelope (gp120) (HIV-1)
[27] = biological target: HIV-1 strain 1056_10_TA11_1826 envelope (gp120) (HIV-1)
[28] = biological target: HIV-1 strain 231965.c01 envelope (gp120) (HIV-1)
[29] = biological target: HIV-1 strain 62357_14_D3_4589 envelope (gp120) (HIV-1)
[30] = biological target: HIV-1 strain 6540.v4.c1 envelope (gp120) (HIV-1)
[31] = biological target: HIV-1 strain 89-F1_2_25 envelope (gp120) (HIV-1)
[32] = biological target: HIV-1 strain C2101.c01 envelope (gp120) (HIV-1)
[33] = biological target: HIV-1 strain CAP210.2.00.E8 envelope (gp120) (HIV-1)
[34] = biological target: HIV-1 strain CNE17 envelope (gp120) (HIV-1)
[35] = biological target: HIV-1 strain Ce0393_C3 envelope (gp120) (HIV-1)
[36] = biological target: HIV-1 strain Ce1176_A3 envelope (gp120) (HIV-1)
[37] = biological target: HIV-1 strain Du172.17 envelope (gp120) (HIV-1)
[38] = biological target: HIV-1 strain Du422.1 envelope (gp120) (HIV-1)
[39] = biological target: HIV-1 strain Q23.17 envelope (gp120) (HIV-1)
[40] = biological target: HIV-1 strain Q842.d12 envelope (gp120) (HIV-1)
[41] = biological target: HIV-1 strain R1166.c01 envelope (gp120) (HIV-1)
[42] = biological target: HIV-1 strain T251-18 envelope (gp120) (HIV-1)
[43] = biological target: HIV-1 strain T257-31 envelope (gp120) (HIV-1)
[44] = biological target: HIV-1 strain T278-50 envelope (gp120) (HIV-1)
[45] = biological target: HIV-1 strain ZM109F.PB4 envelope (gp120) (HIV-1)
[46] = biological target: HIV-1 strain ZM214M.PL15 envelope (gp120) (HIV-1)
[47] = biological target: HIV-1 strain ZM233M.PB6 envelope (gp120) (HIV-1)
[48] = biological target: HIV-1 strain ZM249M.PL1 envelope (gp120) (HIV-1)
[49] = biological target: HIV-1 strain ZM53M.PB12 envelope (gp120) (HIV-1)
[50] = biological target: HIV-1 Env of strain CAP210.2.00.E8 (HIV-1)

B1: NIH45-46^G54Y IgG (antibody, name in Kabat numbering, V domains shown)
VH: QVRLSQSGGQMKKPGESMRLSCRASGYEFLNCPINWIRLAPGRRPEWMGWLKPRYGAVNYARKFQGRVTMTRDVYSDTAFLELRSLTSDDTAVYFCTRGKYCTARDYYNWDFEHWGRGAPVTVSS
VL: EIVLTQSPATLSLSPGETAIISCRTSQSGSLAWYQQRPGQAPRLVIYSGSTRAAGIPDRFSGSRWGADYNLSISNLESGDFGVYYCQQYEFFGQGTKVQVDI
neutralization IC50 [1]: 0.06 µg/mL | neutralization IC50 [2]: 0.3 µg/mL | neutralization IC50 [3]: > 50 µg/mL | neutralization IC50 [4]: 0.018 µg/mL | neutralization IC50 [5]: > 50 µg/mL | neutralization IC50 [6]: 0.011 µg/mL | neutralization IC50 [7]: 0.29 µg/mL | neutralization IC50 [8]: 0.09 µg/mL | neutralization IC50 [9]: 0.011 µg/mL | neutralization IC50 [10]: 0.073 µg/mL | neutralization IC50 [11]: 0.099 µg/mL | neutralization IC50 [12]: 0.006 µg/mL | neutralization IC50 [13]: 0.21 µg/mL | neutralization IC50 [14]: 0.023 µg/mL | neutralization IC50 [15]: 0.24 µg/mL | neutralization IC50 [16]: 0.04 µg/mL | neutralization IC50 [17]: > 50 µg/mL | neutralization IC50 [18]: > 50 µg/mL | neutralization IC50 [19]: 0.03 µg/mL | neutralization IC50 [20]: 0.002 µg/mL | neutralization IC50 [21]: 0.09 µg/mL | neutralization IC50 [22]: 0.07 µg/mL | neutralization IC50 [23]: 0.06 µg/mL | neutralization IC50 [24]: 0.003 µg/mL | neutralization IC50 [25]: 0.06 µg/mL | neutralization IC80 [26]: 0.09 µg/mL | neutralization IC80 [27]: 0.189 µg/mL | neutralization IC80 [28]: 0.054 µg/mL | neutralization IC80 [29]: 0.09 µg/mL | neutralization IC80 [30]: > 50 µg/mL | neutralization IC80 [31]: > 50 µg/mL | neutralization IC80 [32]: 0.27 µg/mL | neutralization IC80 [33]: > 50 µg/mL | neutralization IC80 [34]: 0.264 µg/mL | neutralization IC80 [35]: 0.134 µg/mL | neutralization IC80 [36]: 0.58 µg/mL | neutralization IC80 [37]: > 50 µg/mL | neutralization IC80 [38]: > 50 µg/mL | neutralization IC80 [39]: 0.06 µg/mL | neutralization IC80 [40]: 0.045 µg/mL | neutralization IC80 [41]: 0.84 µg/mL | neutralization IC80 [42]: 1.16 µg/mL | neutralization IC80 [43]: 0.67 µg/mL | neutralization IC80 [44]: > 50 µg/mL | neutralization IC80 [45]: 0.168 µg/mL | neutralization IC80 [46]: 0.23 µg/mL | neutralization IC80 [47]: 0.78 µg/mL | neutralization IC80 [48]: 0.011 µg/mL | neutralization IC80 [49]: 0.22 µg/mL

B2: NIH45-46^G54F IgG (antibody, name in Kabat numbering, V domains shown)
VH: B1 VH with Y55F
VL: B1 VL
neutralization IC50 [1]: 0.06 µg/mL | neutralization IC50 [2]: 0.37 µg/mL | neutralization IC50 [3]: > 50 µg/mL | neutralization IC50 [4]: 0.014 µg/mL | neutralization IC50 [5]: > 50 µg/mL | neutralization IC50 [6]: 0.017 µg/mL | neutralization IC50 [7]: 0.36 µg/mL | neutralization IC50 [8]: 0.11 µg/mL | neutralization IC50 [9]: 0.015 µg/mL | neutralization IC50 [10]: 0.075 µg/mL | neutralization IC50 [11]: 0.1 µg/mL | neutralization IC50 [12]: 0.005 µg/mL | neutralization IC50 [13]: 0.24 µg/mL | neutralization IC50 [14]: 0.03 µg/mL | neutralization IC50 [15]: 0.4 µg/mL | neutralization IC50 [16]: 0.04 µg/mL | neutralization IC50 [17]: > 50 µg/mL | neutralization IC50 [18]: > 50 µg/mL | neutralization IC50 [19]: 0.03 µg/mL | neutralization IC50 [20]: < 0.001 µg/mL | neutralization IC50 [21]: 0.13 µg/mL | neutralization IC50 [22]: 0.09 µg/mL | neutralization IC50 [23]: 0.09 µg/mL | neutralization IC50 [24]: 0.004 µg/mL | neutralization IC50 [25]: 0.08 µg/mL | neutralization IC80 [26]: 0.13 µg/mL | neutralization IC80 [27]: 0.283 µg/mL | neutralization IC80 [28]: 0.062 µg/mL | neutralization IC80 [29]: 0.14 µg/mL | neutralization IC80 [30]: > 50 µg/mL | neutralization IC80 [31]: > 50 µg/mL | neutralization IC80 [32]: 0.42 µg/mL | neutralization IC80 [33]: > 50 µg/mL | neutralization IC80 [34]: 0.287 µg/mL | neutralization IC80 [35]: 0.173 µg/mL | neutralization IC80 [36]: 0.83 µg/mL | neutralization IC80 [37]: > 50 µg/mL | neutralization IC80 [38]: > 50 µg/mL | neutralization IC80 [39]: 0.07 µg/mL | neutralization IC80 [40]: 0.039 µg/mL | neutralization IC80 [41]: 1.32 µg/mL | neutralization IC80 [42]: 1.38 µg/mL | neutralization IC80 [43]: 0.51 µg/mL | neutralization IC80 [44]: > 50 µg/mL | neutralization IC80 [45]: 0.17 µg/mL | neutralization IC80 [46]: 0.3 µg/mL | neutralization IC80 [47]: 0.99 µg/mL | neutralization IC80 [48]: 0.016 µg/mL | neutralization IC80 [49]: 0.23 µg/mL

B3: NIH45-46^G54W(HC), S28Y(LC) (antibody, V domains shown)
VH: B1 VH with Y55W
VL: B1 VL with S28Y
IC50, pseudovirus neutralization [1]: 0.012 µg/mL | IC50, pseudovirus neutralization [2]: 0.181 µg/mL | IC50, pseudovirus neutralization [3]: 5.14 µg/mL | IC50, pseudovirus neutralization [4]: 0.016 µg/mL | IC50, pseudovirus neutralization [6]: 0.026 µg/mL | IC50, pseudovirus neutralization [7]: 0.154 µg/mL | IC50, pseudovirus neutralization [8]: 0.044 µg/mL | IC50, pseudovirus neutralization [9]: 0.007 µg/mL | IC50, pseudovirus neutralization [50]: 1.95 µg/mL | IC50, pseudovirus neutralization [10]: 0.064 µg/mL | IC50, pseudovirus neutralization [11]: 0.082 µg/mL | IC50, pseudovirus neutralization [12]: 0.006 µg/mL | IC50, pseudovirus neutralization [13]: 0.172 µg/mL | IC50, pseudovirus neutralization [14]: 0.034 µg/mL | IC50, pseudovirus neutralization [15]: 0.278 µg/mL | IC50, pseudovirus neutralization [16]: 0.024 µg/mL | IC50, pseudovirus neutralization [17]: 1.55 µg/mL | IC50, pseudovirus neutralization [18]: > 50 µg/mL | IC50, pseudovirus neutralization [20]: 0.008 µg/mL | IC50, pseudovirus neutralization [21]: 0.049 µg/mL | IC50, pseudovirus neutralization [22]: 0.074 µg/mL | IC50, pseudovirus neutralization [23]: 0.036 µg/mL | IC50, pseudovirus neutralization [24]: 0.001 µg/mL | IC50, pseudovirus neutralization [25]: 0.091 µg/mL

B4: NIH45-46^G54W (antibody, V domains shown)
VH: B1 VH with Y55W
VL: B1 VL
IC50, pseudovirus neutralization [1]: 0.02 µg/mL | IC50, pseudovirus neutralization [2]: 0.2 µg/mL | IC50, pseudovirus neutralization [3]: > 50 µg/mL | IC50, pseudovirus neutralization [4]: 0.004 µg/mL | IC50, pseudovirus neutralization [6]: 0.001 µg/mL | IC50, pseudovirus neutralization [7]: 0.2 µg/mL | IC50, pseudovirus neutralization [8]: 0.04 µg/mL | IC50, pseudovirus neutralization [9]: 0.001 µg/mL | IC50, pseudovirus neutralization [50]: > 50 µg/mL | IC50, pseudovirus neutralization [10]: 0.036 µg/mL | IC50, pseudovirus neutralization [11]: 0.052 µg/mL | IC50, pseudovirus neutralization [12]: 0.001 µg/mL | IC50, pseudovirus neutralization [13]: 0.16 µg/mL | IC50, pseudovirus neutralization [14]: 0.009 µg/mL | IC50, pseudovirus neutralization [15]: 0.13 µg/mL | IC50, pseudovirus neutralization [16]: 0.02 µg/mL | IC50, pseudovirus neutralization [17]: 1.33 µg/mL | IC50, pseudovirus neutralization [18]: > 50 µg/mL | IC50, pseudovirus neutralization [20]: 0.001 µg/mL | IC50, pseudovirus neutralization [21]: 0.04 µg/mL | IC50, pseudovirus neutralization [22]: 0.04 µg/mL | IC50, pseudovirus neutralization [23]: 0.03 µg/mL | IC50, pseudovirus neutralization [24]: 0.002 µg/mL | IC50, pseudovirus neutralization [25]: 0.04 µg/mL
